# Experimental data from patent US20220010021A1 (Sanofi, published 2022).
# How the values were obtained:
# [1] = molecular target: cell surface receptor composed of FGFR1c and co-receptor beta-Klotho (KLB) on iLite FGF21 Assay Ready Cells (human, UniProt P11362 22-822; Q86Z14 1-1044); assay: cell-based or functional assay
# [2] = molecular target: human FGFR1c/KLB receptor complex on primary human adipocytes (human, UniProt P11362 22-822; Q86Z14 1-1044); assay: cell-based or functional assay
# Sequence of human FGFR1c/KLB receptor complex on primary human adipocytes (P11362 22-822, chain 1 of 2): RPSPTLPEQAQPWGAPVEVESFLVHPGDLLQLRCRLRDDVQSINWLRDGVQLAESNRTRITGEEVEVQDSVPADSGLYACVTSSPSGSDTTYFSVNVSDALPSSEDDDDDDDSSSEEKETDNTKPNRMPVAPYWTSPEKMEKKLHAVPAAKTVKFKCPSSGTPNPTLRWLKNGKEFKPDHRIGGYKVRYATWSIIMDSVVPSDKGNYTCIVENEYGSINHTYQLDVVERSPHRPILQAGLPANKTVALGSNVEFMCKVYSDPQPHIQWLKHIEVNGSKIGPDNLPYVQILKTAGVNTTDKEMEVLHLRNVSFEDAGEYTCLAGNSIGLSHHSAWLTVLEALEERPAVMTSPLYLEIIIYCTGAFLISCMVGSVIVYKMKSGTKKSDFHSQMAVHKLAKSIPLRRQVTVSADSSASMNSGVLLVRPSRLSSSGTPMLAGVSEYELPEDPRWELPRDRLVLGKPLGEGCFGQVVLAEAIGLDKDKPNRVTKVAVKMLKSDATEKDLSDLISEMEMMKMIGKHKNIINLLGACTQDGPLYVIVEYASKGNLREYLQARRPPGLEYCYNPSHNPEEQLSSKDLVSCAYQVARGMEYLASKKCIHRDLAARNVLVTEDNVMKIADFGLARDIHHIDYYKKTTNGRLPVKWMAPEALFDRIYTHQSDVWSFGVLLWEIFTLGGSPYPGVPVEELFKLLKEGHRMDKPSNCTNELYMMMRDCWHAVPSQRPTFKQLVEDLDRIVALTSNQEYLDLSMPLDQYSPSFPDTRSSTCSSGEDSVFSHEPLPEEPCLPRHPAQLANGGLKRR
# Sequence of human FGFR1c/KLB receptor complex on primary human adipocytes (Q86Z14 whole entry, chain 2 of 2): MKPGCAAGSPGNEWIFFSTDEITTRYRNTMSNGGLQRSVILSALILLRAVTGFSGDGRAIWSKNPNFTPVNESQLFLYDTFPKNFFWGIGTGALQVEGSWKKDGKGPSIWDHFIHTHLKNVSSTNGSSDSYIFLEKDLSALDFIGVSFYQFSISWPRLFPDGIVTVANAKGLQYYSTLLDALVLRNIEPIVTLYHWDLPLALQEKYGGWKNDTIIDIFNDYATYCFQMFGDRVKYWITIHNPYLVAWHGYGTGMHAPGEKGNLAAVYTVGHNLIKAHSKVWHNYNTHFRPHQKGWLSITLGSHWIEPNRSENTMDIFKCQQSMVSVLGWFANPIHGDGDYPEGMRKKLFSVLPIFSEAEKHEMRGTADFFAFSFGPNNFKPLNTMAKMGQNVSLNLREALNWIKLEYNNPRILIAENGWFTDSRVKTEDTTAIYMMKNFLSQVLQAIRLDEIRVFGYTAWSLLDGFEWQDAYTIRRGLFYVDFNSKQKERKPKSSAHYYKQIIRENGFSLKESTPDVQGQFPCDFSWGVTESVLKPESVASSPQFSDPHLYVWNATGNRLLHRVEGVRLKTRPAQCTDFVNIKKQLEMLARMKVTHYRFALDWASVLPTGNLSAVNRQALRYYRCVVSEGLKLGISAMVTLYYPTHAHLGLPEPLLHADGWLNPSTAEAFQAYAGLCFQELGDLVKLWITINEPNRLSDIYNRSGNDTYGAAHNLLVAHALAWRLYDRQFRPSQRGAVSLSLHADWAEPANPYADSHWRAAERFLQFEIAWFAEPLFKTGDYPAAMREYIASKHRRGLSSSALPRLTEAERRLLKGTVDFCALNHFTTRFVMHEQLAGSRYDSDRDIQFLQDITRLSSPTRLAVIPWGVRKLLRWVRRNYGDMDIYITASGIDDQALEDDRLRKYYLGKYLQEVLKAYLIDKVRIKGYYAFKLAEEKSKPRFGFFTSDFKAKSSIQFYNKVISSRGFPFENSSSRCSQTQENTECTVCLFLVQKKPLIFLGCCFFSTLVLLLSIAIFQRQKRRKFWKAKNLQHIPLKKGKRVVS
# Sequence of cell surface receptor composed of FGFR1c and co-receptor beta-Klotho (KLB) on iLite FGF21 Assay Ready Cells (P11362 22-822, chain 1 of 2): as the sequence (P11362 22-822, chain 1 of 2) above
# Sequence of cell surface receptor composed of FGFR1c and co-receptor beta-Klotho (KLB) on iLite FGF21 Assay Ready Cells (Q86Z14 whole entry, chain 2 of 2): as the sequence (Q86Z14 whole entry, chain 2 of 2) above
Binder,Mean E max [1] [%],"In-Cell Western pERK EC50, primary human adipocytes [2] [nmol/L]"
"16H7 variant with light chain substitution Q88S (antibody, V domains shown) VH: not shown VL: SYVLTQPPSVSVAPGQTARITCGGNNIGSESVHWYQQKPGQAPVLVVYDDSDRPSGIPERFSGSNSGNTATLTISRVEAGDEADYYCSVWDGNSDHVVFGGGTKLTVLG",104,
human FGF21 (ligand) GHPIPDSSPLLQFGGQVRQRYLYTDDAQQTEAHLEIREDGTVGGAADQSPESLLQLKALKPGVIQILGVKTSRFLCQRPDGALYGSLHFDPEACSFRELLLEDGYNVYQSEAHGLPLHLPGNKSPHRDPAPRGPARFLPLPGLPPAPPEPPGILAPQPPDVGSSDPLSMVGPSQGRSPSYAS,,0.206
"Ab0331 (antibody, human IgG4 S228P, lambda) heavy: not shown light: SYVLTQPPSVSVAPGQTARITCGGSNIGSESVHWYQQKPGQAPVLVVYSESDRPSGIPERFSGSNSGNTATLTISRVEAGDEADYYCQVWEGESDHVVFGGGTKLTVLGQPKANPTVTLFPPSSEELQANKATLVCLISDFYPGAVTVAWKADGSPVKAGVETTKPSKQSNNKYAASSYLSLTPEQWKSHRSYSCQVTHEGSTVEKTVAPTECS",,0.101
"Ab0428 (antibody, human IgG1, lambda) heavy: not shown light: SYVLTQPPSVSVAPGQTARITCGGSNIGSESVHWYQQKPGQAPVLVVYSESDRPSGIPERFSGSNSGNTATLTISRVEAGDEADYYCQVWEGESDHVVFGGGTKLTVLGQPKANPTVTLFPPSSEELQANKATLVCLISDFYPGAVTVAWKADGSPVKAGVETTKPSKQSNNKYAASSYLSLTPEQWKSHRSYSCQVTHEGSTVEKTVAPTECS",,0.072
"Ab0429 (antibody, human IgG1, lambda) heavy: not shown light: SYVLTQPPSVSVAPGQTARITCGGSNIGSESVHWYQQKPGQAPVLVVYSASDRPSGIPERFSGSNSGNTATLTISRVEAGDEADYYCQVWEGESDHVVFGGGTKLTVLGQPKANPTVTLFPPSSEELQANKATLVCLISDFYPGAVTVAWKADGSPVKAGVETTKPSKQSNNKYAASSYLSLTPEQWKSHRSYSCQVTHEGSTVEKTVAPTECS",,0.078
"Ab0430 (antibody, human IgG1, lambda) heavy: not shown light: SYVLTQPPSVSVAPGQTARITCGGSNIGSESVHWYQQKPGQAPVLVVYEESDRPSGIPERFSGSNSGNTATLTISRVEAGDEADYYCQVWEGESDHVVFGGGTKLTVLGQPKANPTVTLFPPSSEELQANKATLVCLISDFYPGAVTVAWKADGSPVKAGVETTKPSKQSNNKYAASSYLSLTPEQWKSHRSYSCQVTHEGSTVEKTVAPTECS",,0.116
"Ab0351 (antibody, human IgG4 S228P, lambda) heavy: not shown light: SYVLTQPPSVSVAPGQTARITCGGSNIGSESVHWYQQKPGQAPVLVVYEESDRPSGIPERFSGSNSGNTATLTISRVEAGDEADYYCQVWEGESDHVVFGGGTKLTVLGQPKANPTVTLFPPSSEELQANKATLVCLISDFYPGAVTVAWKADGSPVKAGVETTKPSKQSNNKYAASSYLSLTPEQWKSHRSYSCQVTHEGSTVEKTVAPTECS",,0.156
"Ab0335 (antibody, human IgG4 S228P, lambda) heavy: not shown light: SYVLTQPPSVSVAPGQTARITCGGSNIGSESVHWYQQKPGQAPVLVVYSASDRPSGIPERFSGSNSGNTATLTISRVEAGDEADYYCQVWEGESDHVVFGGGTKLTVLGQPKANPTVTLFPPSSEELQANKATLVCLISDFYPGAVTVAWKADGSPVKAGVETTKPSKQSNNKYAASSYLSLTPEQWKSHRSYSCQVTHEGSTVEKTVAPTECS",,0.142
